The supplement of paper PMC10126150
± gives the standard deviation of the averaged measurements.

Tested on: ATP
Assay: switch fluorescence ratio, 500 uM ATP over buffer (Cy3 cluster intensity, sum of 5 cycles each) (fold (ratio)); higher = stronger signal-on switching upon ATP binding; sequences stand for … in TCGTCGGCAGCGTCAGATGTGTATAAGAGACAGTTTTTTTTTTTTTTTTTTTTTTTTT…TC
Conditions: aptamer strand: ATP DNA aptamer (quencher-CACCTGGGGGAGTATTGCGGAGGAAGG + anchor), 100 nM annealed; ATP concentration: 500 uM
Summary of the method: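 Cy3-labelled switching-strand clusters on a modified Illumina MiSeq flow-cell were annealed to 100 nM quencher-labelled ATP aptamer and imaged first in selection buffer, then after 15 min with 500 uM ATP at 22 °C. NaOH stripping and re-annealing separated each of five buffer/ATP cycles, and clusters outside 100-1000 RFU were excluded. The fluorescence ratio sums target-cycle Cy3 intensity over buffer-cycle Cy3 intensity per cluster and averages it per switch-domain sequence.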
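Note: ATP exposure 15 min at 22 °C before imaging.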

## AGGGCATTAG
  switch fluorescence ratio: 1 ± 0.1

## AGGGCCGGTC
  switch fluorescence ratio: 1.06 ± 0.04

## AGGGCGGCTG
  switch fluorescence ratio: 0.985 ± 0.024

## AGGGCGGGGA
  switch fluorescence ratio: 1.01 ± 0.058

## AGGGCGGGGC
  switch fluorescence ratio: 0.944 ± 0.061

## AGGGCGGTAT
  switch fluorescence ratio: 1.0286 ± 0.00059

## AGGGCGGTCT
  switch fluorescence ratio: 1.07 ± 0.18

## AGGGCGTAAG
  switch fluorescence ratio: 0.9716 ± 0.0055

## AGGGCGTTTC
  switch fluorescence ratio: 1.009 ± 0.0032

## AGGGCTCGTT
  switch fluorescence ratio: 0.9801 ± 0.0094

## AGGGCTGCTA
  switch fluorescence ratio: 0.996 ± 0.046

## AGGGCTTGCT
  switch fluorescence ratio: 0.987 ± 0.038

## AGGGGAAAAG
  switch fluorescence ratio: 0.993 ± 0.049

## AGGGGAAAGT
  switch fluorescence ratio: 0.954 ± 0.052

## AGGGGAATCG
  switch fluorescence ratio: 1.01 ± 0.016

## AGGGGACGAT
  switch fluorescence ratio: 0.9887 ± 0.0056

## AGGGGAGGTA
  switch fluorescence ratio: 0.965 ± 0.021

## AGGGGAGTTG
  switch fluorescence ratio: 0.995 ± 0.027

## AGGGGAGTTT
  switch fluorescence ratio: 1 ± 0.041

## AGGGGCAGAG
  switch fluorescence ratio: 1.06 ± 0.092

## AGGGGCCCGT
  switch fluorescence ratio: 0.99 ± 0.038

## AGGGGCGACT
  switch fluorescence ratio: 0.984 ± 0.03

## AGGGGCGGGT
  switch fluorescence ratio: 1.23 ± 0.46

## AGGGGCGTAA
  switch fluorescence ratio: 1 ± 0.05

## AGGGGCGTGC
  switch fluorescence ratio: 0.977 ± 0.015

## AGGGGCTATG
  switch fluorescence ratio: 1.01 ± 0.032

## AGGGGCTGTG
  switch fluorescence ratio: 0.9991 ± 0.0074

## AGGGGGAAAC
  switch fluorescence ratio: 1.01 ± 0.027

## AGGGGGAACT
  switch fluorescence ratio: 1.03 ± 0.033

## AGGGGGACCC
  switch fluorescence ratio: 1 ± 0.058

## AGGGGGAGCT
  switch fluorescence ratio: 1.005 ± 0.0056

## AGGGGGAGTG
  switch fluorescence ratio: 0.987 ± 0.036

## AGGGGGATTA
  switch fluorescence ratio: 0.993 ± 0.019

## AGGGGGCCTT
  switch fluorescence ratio: 1.0113 ± 0.00015

## AGGGGGGAAA
  switch fluorescence ratio: 1.01 ± 0.027

## AGGGGGGCAG
  switch fluorescence ratio: 0.987 ± 0.032

## AGGGGGGGCC
  switch fluorescence ratio: 0.992 ± 0.038

## AGGGGGGGCT
  switch fluorescence ratio: 0.985 ± 0.024

## AGGGGGGGGG
  switch fluorescence ratio: 1.02 ± 0.072

## AGGGGGGTAC
  switch fluorescence ratio: 0.991 ± 0.041

## AGGGGGGTTC
  switch fluorescence ratio: 0.994 ± 0.023

## AGGGGGTACA
  switch fluorescence ratio: 1.01 ± 0.016

## AGGGGGTGTT
  switch fluorescence ratio: 1.02 ± 0.015

## AGGGGGTTGG
  switch fluorescence ratio: 1 ± 0.032

## AGGGGTAAGA
  switch fluorescence ratio: 1.01 ± 0.032

## AGGGGTAGGA
  switch fluorescence ratio: 0.99 ± 0.034

## AGGGGTAGGT
  switch fluorescence ratio: 0.982 ± 0.019

## AGGGGTATGC
  switch fluorescence ratio: 0.979 ± 0.033

## AGGGGTCCGT
  switch fluorescence ratio: 0.969 ± 0.018

## AGGGGTGTCC
  switch fluorescence ratio: 1.01 ± 0.029

## AGGGGTTAGT
  switch fluorescence ratio: 0.999 ± 0.036

## AGGGGTTATA
  switch fluorescence ratio: 1.01 ± 0.024

## AGGGGTTTTG
  switch fluorescence ratio: 0.989 ± 0.022

## AGGGTAAATA
  switch fluorescence ratio: 1.0193 ± 0.00016

## AGGGTAACGG
  switch fluorescence ratio: 0.995 ± 0.028

## AGGGTAATCA
  switch fluorescence ratio: 0.993 ± 0.03

## AGGGTACCTG
  switch fluorescence ratio: 1.01 ± 0.015

## AGGGTACTTG
  switch fluorescence ratio: 1 ± 0.03

## AGGGTAGATA
  switch fluorescence ratio: 1 ± 0.044

## AGGGTAGATT
  switch fluorescence ratio: 0.977 ± 0.054

## AGGGTAGCGA
  switch fluorescence ratio: 1.03 ± 0.017

## AGGGTAGCGG
  switch fluorescence ratio: 0.955 ± 0.012

## AGGGTAGCTA
  switch fluorescence ratio: 0.958 ± 0.016

## AGGGTAGGTC
  switch fluorescence ratio: 1.06 ± 0.087

## AGGGTATCGC
  switch fluorescence ratio: 0.9932 ± 0.0065

## AGGGTCAATC
  switch fluorescence ratio: 1.04 ± 0.05

## AGGGTCAGGT
  switch fluorescence ratio: 1 ± 0.013

## AGGGTCGGCG
  switch fluorescence ratio: 1.01 ± 0.027

## AGGGTGGAAT
  switch fluorescence ratio: 1.068 ± 0.01

## AGGGTGGGG
  switch fluorescence ratio: 0.928 ± 0.076

## AGGGTGGGGA
  switch fluorescence ratio: 1.01 ± 0.036

## AGGGTGTCGA
  switch fluorescence ratio: 1.02 ± 0.012

## AGGGTGTGCT
  switch fluorescence ratio: 1.015 ± 0.0042

## AGGGTTAAGG
  switch fluorescence ratio: 1.017 ± 0.0078

## AGGGTTACGA
  switch fluorescence ratio: 0.976 ± 0.038

## AGGGTTACGC
  switch fluorescence ratio: 1.04 ± 0.11

## AGGGTTATAA
  switch fluorescence ratio: 0.969 ± 0.033

## AGGGTTATGA
  switch fluorescence ratio: 0.995 ± 0.021

## AGGGTTCTTT
  switch fluorescence ratio: 1 ± 0.029

## AGGGTTGAAC
  switch fluorescence ratio: 1 ± 0.023

## AGGGTTGCGA
  switch fluorescence ratio: 1.02 ± 0.025

## AGGGTTTAAA
  switch fluorescence ratio: 1 ± 0.036

## AGGGTTTAGC
  switch fluorescence ratio: 1.02 ± 0.032

## AGGGTTTAGT
  switch fluorescence ratio: 1 ± 0.01

## AGGTAAGGGC
  switch fluorescence ratio: 1.01 ± 0.015

## AGGTAATAGT
  switch fluorescence ratio: 1.03 ± 0.028

## AGGTACACCT
  switch fluorescence ratio: 1.08 ± 0.053

## AGGTACGAGG
  switch fluorescence ratio: 1.006 ± 0.003

## AGGTACGATT
  switch fluorescence ratio: 1.02 ± 0.034

## AGGTACGGGA
  switch fluorescence ratio: 1.03 ± 0.074

## AGGTACTAGG
  switch fluorescence ratio: 1.036 ± 0.0041

## AGGTAGAATA
  switch fluorescence ratio: 0.989 ± 0.031

## AGGTAGAGTA
  switch fluorescence ratio: 0.97 ± 0.034

## AGGTAGGCGG
  switch fluorescence ratio: 0.969 ± 0.055

## AGGTAGGGAA
  switch fluorescence ratio: 0.9928 ± 0.0037

## AGGTAGGGGC
  switch fluorescence ratio: 1.02 ± 0.026

## AGGTAGGGGT
  switch fluorescence ratio: 1.01 ± 0.02

## AGGTATAAGG
  switch fluorescence ratio: 1.02 ± 0.019

## AGGTATACCT
  switch fluorescence ratio: 1.014 ± 0.0028

## AGGTATGGGG
  switch fluorescence ratio: 0.998 ± 0.034
